According to patent publication US20040072368A1, “Lipoprotein receptor” (priority 2002, published 2004):

Key:
[1] = target: beta-subunit of ATP synthase (F1 domain) on the cell surface of human hepatocytes (human) (UniProt P06576)
[2] = target: beta-subunit of ATP synthase (F1 domain) on the cell surface of human hepatocytes (human) (UniProt P06576); experiment: cell-based or functional assay
[3] = target: ectopic ATP synthase of rat liver (rat) (UniProt P10719); experiment: cell-based or functional assay
Sequence of ectopic ATP synthase of rat liver (rat) (P10719 47-529, chain 1 of 2): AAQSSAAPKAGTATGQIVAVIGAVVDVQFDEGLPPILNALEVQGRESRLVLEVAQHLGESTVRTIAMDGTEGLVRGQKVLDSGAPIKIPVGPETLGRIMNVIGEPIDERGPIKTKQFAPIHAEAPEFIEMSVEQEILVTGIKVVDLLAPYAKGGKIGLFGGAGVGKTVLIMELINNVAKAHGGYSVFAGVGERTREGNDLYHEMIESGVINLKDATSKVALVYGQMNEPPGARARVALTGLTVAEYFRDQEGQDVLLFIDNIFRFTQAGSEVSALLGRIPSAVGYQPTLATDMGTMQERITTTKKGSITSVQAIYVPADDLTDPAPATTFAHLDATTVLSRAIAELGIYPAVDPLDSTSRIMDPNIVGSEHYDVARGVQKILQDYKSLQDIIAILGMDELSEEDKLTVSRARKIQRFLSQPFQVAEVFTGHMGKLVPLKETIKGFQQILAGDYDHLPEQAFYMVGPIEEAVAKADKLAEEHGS
Sequence of ectopic ATP synthase of rat liver (rat) (P15999 44-553, chain 2 of 2, further chain): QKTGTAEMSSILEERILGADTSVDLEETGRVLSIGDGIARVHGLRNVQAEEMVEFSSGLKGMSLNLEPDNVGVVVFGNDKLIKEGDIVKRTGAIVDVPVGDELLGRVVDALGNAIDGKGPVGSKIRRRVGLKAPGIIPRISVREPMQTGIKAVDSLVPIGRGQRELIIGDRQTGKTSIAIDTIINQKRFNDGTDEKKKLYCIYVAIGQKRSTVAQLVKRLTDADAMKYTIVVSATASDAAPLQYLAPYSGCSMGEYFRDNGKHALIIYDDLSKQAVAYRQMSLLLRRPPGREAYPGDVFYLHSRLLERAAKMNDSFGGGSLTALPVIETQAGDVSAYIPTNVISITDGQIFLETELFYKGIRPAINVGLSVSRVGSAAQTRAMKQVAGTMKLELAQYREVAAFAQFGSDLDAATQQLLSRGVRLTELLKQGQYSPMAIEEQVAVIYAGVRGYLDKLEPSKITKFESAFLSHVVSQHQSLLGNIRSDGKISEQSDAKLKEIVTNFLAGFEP

Sequence of beta-subunit of ATP synthase (F1 domain) on the cell surface of human hepatocytes (human) (P06576 48-529 E274Q limits assumed): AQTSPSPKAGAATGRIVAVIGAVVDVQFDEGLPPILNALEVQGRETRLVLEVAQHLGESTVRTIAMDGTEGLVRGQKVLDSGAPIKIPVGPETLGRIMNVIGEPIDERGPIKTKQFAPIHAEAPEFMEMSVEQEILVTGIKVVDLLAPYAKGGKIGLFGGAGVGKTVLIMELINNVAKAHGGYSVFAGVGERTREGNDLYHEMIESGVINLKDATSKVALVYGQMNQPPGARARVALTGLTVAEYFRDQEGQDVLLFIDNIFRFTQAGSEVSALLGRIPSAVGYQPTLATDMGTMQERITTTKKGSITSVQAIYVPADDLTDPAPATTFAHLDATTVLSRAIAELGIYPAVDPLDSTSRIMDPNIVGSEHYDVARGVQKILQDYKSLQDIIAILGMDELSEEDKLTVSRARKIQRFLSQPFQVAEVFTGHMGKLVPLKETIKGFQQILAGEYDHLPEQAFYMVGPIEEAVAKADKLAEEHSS

B1: IF1 protein, natural inhibitor protein of mitochondrial F1-ATPase (protein, UniProt P01096 26-109, looked up, species assumed)
ATPase inhibitor, mitochondrial: GSESGDNVRSSAGAVRDAGGAFGKREQAEEERYFRARAKEQLAALKKHHENEISHHAKEIERLQKEIERHKQSIKKLKQSEDDD
- IC50 (read off the curve), 125I-TG-HDL2 internalisation by HepG2 cells, without apoA-I [1]: 8 nM
- [α-32P]-ADP generated from [α-32P]-ATP at the HepG2 cell surface (HPLC), 100 nM IF1 [2]: 48 % decrease
- TG-HDL2 internalisation by perfused rat liver, 45 min, 1 µM IF1 [3]: < 45 % decrease
